Reference: IntAct's records for PubMed 31515488

B1: EF-hand domain-containing protein 1 (Homo sapiens), Q5JVL4 (parent)
chain: MVSNPVHGLPFLPGTSFKDSTKTAFHRSQTLSYRNGYAIVRRPTVGIGGDRLQFNQLSQAELDELASKAPVLTYGQPKQAPPADFIPAHVAFDKKVLKFDAYFQEDVPMSTEEQYRIRQVNIYYYLEDDSMSVIEPVVENSGILQGKLIKRQRLAKNDRGDHYHWKDLNRGINITIYGKTFRVVDCDQFTQVFLESQGIELNPPEKMALDPYTELRKQPLRKYVTPSDFDQLKQFLTFDKQVLRFYAIWDDTDSMYGECRTYIIHYYLMDDTVEIREVHERNDGRDPFPLLMNRQRVPKVLVENAKNFPQCVLEISDQEVLEWYTAKDFIVGKSLTILGRTFFIYDCDPFTRRYYKEKFGITDLPRIDVSKREPPPVKQELPPYNGFGLVEDSAQNCFALIPKAPKKDVIKMLVNDNKVLRYLAVLESPIPEDKDRRFVFSYFLATDMISIFEPPVRNSGIIGGKYLGRTKVVKPYSTVDNPVYYGPSDFFIGAVIEVFGHRFIILDTDEYVLKYMESNAAQYSPEALASIQNHVRKREAPAPEAESKQTEKDPGVQELEALIDTIQKQLKDHSCKDNIREAFQIYDKEASGYVDRDMFFKICESLNVPVDDSLVKELIRMCSHGEGKINYYNFVRAFSN
partner: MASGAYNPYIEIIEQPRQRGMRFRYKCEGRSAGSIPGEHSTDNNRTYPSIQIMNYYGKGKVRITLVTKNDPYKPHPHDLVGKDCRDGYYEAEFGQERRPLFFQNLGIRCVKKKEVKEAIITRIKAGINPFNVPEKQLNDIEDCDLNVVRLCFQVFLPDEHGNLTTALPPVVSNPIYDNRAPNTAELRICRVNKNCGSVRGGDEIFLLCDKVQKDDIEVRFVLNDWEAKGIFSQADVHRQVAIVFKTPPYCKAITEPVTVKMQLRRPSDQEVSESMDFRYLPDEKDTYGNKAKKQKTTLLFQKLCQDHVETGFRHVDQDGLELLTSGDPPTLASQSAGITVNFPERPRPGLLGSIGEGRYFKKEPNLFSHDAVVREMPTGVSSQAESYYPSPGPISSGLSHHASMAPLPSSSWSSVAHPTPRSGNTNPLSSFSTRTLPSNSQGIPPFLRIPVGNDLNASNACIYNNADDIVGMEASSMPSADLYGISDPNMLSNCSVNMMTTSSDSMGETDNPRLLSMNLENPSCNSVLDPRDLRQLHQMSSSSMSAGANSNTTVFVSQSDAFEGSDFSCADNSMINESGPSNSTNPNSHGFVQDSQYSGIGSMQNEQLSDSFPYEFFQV
B2: Myomegalin (Homo sapiens), Q5VU43-2 (parent)
chain: MKEICRICARELCGNQRRWIFHTASKLNLQVLLSHVLGKDVPRDGKAEFACSKCAFMLDRIYRFDTVIARIEALSIERLQKLLLEKDRLKFCIASMYRKNNDDSGAEIKAGNGTVDMSVLPDARYSALLQEDFAYSGFECWVENEDQIQEPHSCHGSEGPGNRPRRCRGCAALRVADSDYEAICKVPRKVARSISCGPSSRWSTSICTEEPALSEVGPPDLASTKVPPDGESMEEETPGSSVESLDASVQASPPQQKDEETERSAKELGKCDCCSDDQAPQHGCNHKLELALSMIKGLDYKPIQSPRGSRLPIPVKSSLPGAKPGPSMTDGVSSGFLNRSLKPLYKTPVSYPLELSDLQELWDDLCEDYLPLRVQPMTEELLKQQKLNSHETTITQQSVSDSHLAELQEKIQQTEATNKILQEKLNEMSYELKCAQESSQKQDGTIQNLKETLKSRERETEELYQVIEGQNDTMAKLREMLHQSQLGQLHSSEGTSPAQQQVALLDLQSALFCSQLEIQKLQRVVRQKERQLADAKQCVQFVEAAAHESEQQKEASWKHNQELRKALQQLQEELQNKSQQLRAWEAEKYNEIRTQEQNIQHLNHSLSHKEQLLQEFRELLQYRDNSDKTLEANEMLLEKLRQRIHDKAVALERAIDEKFSALEEKEKELRQLRLAVRERDHDLERLRDVLSSNEATMQSMESLLRAKGLEVEQLSTTCQNLQWLKEEMETKFSRWQKEQESIIQQLQTSLHDRNKEVEDLSATLLCKLGPGQSEIAEELCQRLQRKERMLQDLLSDRNKQVLEHEMEIQGLLQSVSTREQESQAAAEKLVQALMERNSELQALRQYLGGRDSLMSQAPISNQQAEVTPTGRLGKQTDQGSMQIPSRDDSTSLTAKEDVSIPRSTLGDLDTVAGLEKELSNAKEELELMAKKERESQMELSALQSMMAVQEEELQVQAADMESLTRNIQIKEDLIKDLQMQLVDPEDIPAMERLTQEVLLLREKVASVESQGQEISGNRRQQLLLMLEGLVDERSRLNEALQAERQLYSSLVKFHAHPESSERDRTLQVELEGAQVLRSRLEEVLGRSLERLNRLETLAAIGGAAAGDDTEDTSTEFTDSIEEEAAHHSHQQL
partner: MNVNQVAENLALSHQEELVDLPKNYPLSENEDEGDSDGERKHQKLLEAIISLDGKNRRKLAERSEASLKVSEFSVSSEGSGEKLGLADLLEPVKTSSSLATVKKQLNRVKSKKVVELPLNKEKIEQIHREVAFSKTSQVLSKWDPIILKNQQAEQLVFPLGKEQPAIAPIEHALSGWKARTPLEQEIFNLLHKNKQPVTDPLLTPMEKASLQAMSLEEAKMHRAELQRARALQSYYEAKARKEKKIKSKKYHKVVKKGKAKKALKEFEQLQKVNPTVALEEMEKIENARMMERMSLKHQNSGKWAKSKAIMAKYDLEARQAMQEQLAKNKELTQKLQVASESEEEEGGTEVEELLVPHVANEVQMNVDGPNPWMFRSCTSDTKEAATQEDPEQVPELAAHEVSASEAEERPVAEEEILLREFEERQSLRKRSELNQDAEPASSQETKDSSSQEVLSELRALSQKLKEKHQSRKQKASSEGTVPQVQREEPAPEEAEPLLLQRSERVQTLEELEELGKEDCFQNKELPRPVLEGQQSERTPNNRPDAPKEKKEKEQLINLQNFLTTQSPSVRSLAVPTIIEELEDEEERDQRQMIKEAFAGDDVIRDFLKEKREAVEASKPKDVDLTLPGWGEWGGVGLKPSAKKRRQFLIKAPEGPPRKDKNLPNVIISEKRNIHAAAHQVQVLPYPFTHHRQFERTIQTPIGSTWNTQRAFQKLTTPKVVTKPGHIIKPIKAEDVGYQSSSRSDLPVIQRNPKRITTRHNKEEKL
B3: THAP domain-containing protein 8 (Homo sapiens), Q8NA92 (parent)
chain: MPKYCRAPNCSNTAGRLGADNRPVSFYKFPLKDGPRLQAWLQHMGCEHWVPSCHQHLCSEHFTPSCFQWRWGVRYLRPDAVPSIFSRGPPAKSQRRTRSTQKPVSPPPPLQKNTPLPQSPAIPVSGPVRLVVLGPTSGSPKTVATMLLTPLAPAPTPERSQPEVPAQQAQTGLGPVLGALQRRVRRLQRCQERHQAQLQALERLAQQLHGESLLARARRGLQRLTTAQTLGPEESQTFTIICGGPDIAMVLAQDPAPATVDAKPELLDTRIPSA
B4: Vacuolar protein sorting-associated protein 4B (Homo sapiens), O75351 (parent)
chain: MSSTSPNLQKAIDLASKAAQEDKAGNYEEALQLYQHAVQYFLHVVKYEAQGDKAKQSIRAKCTEYLDRAEKLKEYLKNKEKKAQKPVKEGQPSPADEKGNDSDGEGESDDPEKKKLQNQLQGAIVIERPNVKWSDVAGLEGAKEALKEAVILPIKFPHLFTGKRTPWRGILLFGPPGTGKSYLAKAVATEANNSTFFSISSSDLVSKWLGESEKLVKNLFQLARENKPSIIFIDEIDSLCGSRSENESEAARRIKTEFLVQMQGVGVDNDGILVLGATNIPWVLDSAIRRRFEKRIYIPLPEPHARAAMFKLHLGTTQNSLTEADFRELGRKTDGYSGADISIIVRDALMQPVRKVQSATHFKKVRGPSRADPNHLVDDLLTPCSPGDPGAIEMTWMDVPGDKLLEPVVSMSDMLRSLSNTKPTVNEHDLLKLKKFTEDFGQEG

Variants of: B1
Settings: with rel_human REL

effect of a mutation on the interaction | Variant
with no effect | R159W
with no effect | F229L

Variants of: B2
Settings: with ut14c_human UTP14C

effect of a mutation on the interaction | Variant
with no effect | N28S

Variants of: B3
Settings: with tfp11_human TFIP11, Q9UBB9
tfp11_human TFIP11, Q9UBB9, sequence (Q9UBB9 whole entry): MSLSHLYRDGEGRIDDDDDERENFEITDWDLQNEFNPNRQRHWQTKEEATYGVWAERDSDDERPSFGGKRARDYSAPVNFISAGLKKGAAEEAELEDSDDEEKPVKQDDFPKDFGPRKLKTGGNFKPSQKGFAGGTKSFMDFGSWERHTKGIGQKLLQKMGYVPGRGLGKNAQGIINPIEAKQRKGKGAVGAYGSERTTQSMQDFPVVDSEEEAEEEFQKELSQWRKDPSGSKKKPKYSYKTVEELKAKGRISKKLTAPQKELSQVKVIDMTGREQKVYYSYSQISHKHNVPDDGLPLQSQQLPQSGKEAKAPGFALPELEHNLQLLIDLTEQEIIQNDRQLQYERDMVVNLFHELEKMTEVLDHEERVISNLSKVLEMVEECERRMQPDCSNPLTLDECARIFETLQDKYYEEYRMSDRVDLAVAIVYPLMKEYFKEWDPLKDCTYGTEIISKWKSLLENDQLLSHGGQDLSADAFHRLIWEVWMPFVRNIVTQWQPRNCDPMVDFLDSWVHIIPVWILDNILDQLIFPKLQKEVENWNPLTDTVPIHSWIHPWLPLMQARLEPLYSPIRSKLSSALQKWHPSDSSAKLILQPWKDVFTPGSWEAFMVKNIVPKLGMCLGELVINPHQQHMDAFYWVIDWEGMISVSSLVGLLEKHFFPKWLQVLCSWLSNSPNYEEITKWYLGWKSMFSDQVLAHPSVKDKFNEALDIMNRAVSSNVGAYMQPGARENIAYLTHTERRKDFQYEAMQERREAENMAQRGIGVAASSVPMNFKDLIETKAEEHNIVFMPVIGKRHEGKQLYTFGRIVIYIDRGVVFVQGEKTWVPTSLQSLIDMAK

effect of a mutation on the interaction | Variant
with no effect | MPKYCRAPNCSNTAGRLGADNRPVSFYKFPLKDGPRLQAWLQHMGCEHWVPSCHQHLCSEHFTPSCFQWRWGVRYLRPDAVPSIFSRGPPAKSQRRTRSTQKPVSPPPPLQKNTPLPQSPAIPVSGPVRLVVLGPTSGSPKTVATMLLTPLAPAPTPERSQPEVPAQQAQTGLGPVLGALQRRVRRLQWCQERHQAQLQALERLAQQLHGESLLARARRGLQRLTTAQTLGPEESQTFTIICGGPDIAMVLAQDPAPATVDAKPELLDTRIPSA [R189W]
with no effect | MPKYCRAPNCSNTAGRLGADNRPVSFYKFPLKDGPRLQAWLQHMGCEHWVPSCHQHLCSEHFTPSCFQWRWGVRYLRPDAVPSIFSRGPPAKSQRRTRSTQKPVSPPPPLQKNTPLPQSPAIPVSGPVRLVVLGPTSGSPKTVATMLLTPLAPAPTSERSQPEVPAQQAQTGLGPVLGALQRRVRRLQRCQERHQAQLQALERLAQQLHGESLLARARRGLQRLTTAQTLGPEESQTFTIICGGPDIAMVLAQDPAPATVDAKPELLDTRIPSA [P157S]
with no effect | MPKYCRAPNCSNTAGRLGADNRPVSFYKFPLKDGPRLQAWLQHMGCEHWVPSCHQHLCSEHFTPSCFQWRWGVRYLRPDAVPSIFSRGPPAKSQRRTRSTQKPVSPPPPLQKNTPLPQSPAIPVSGPVRLVVLGPTSGSPKTVATMLLTPLAPAPTPERSQPEVPAQQAQTGLGPVLGALQRRVQRLQRCQERHQAQLQALERLAQQLHGESLLARARRGLQRLTTAQTLGPEESQTFTIICGGPDIAMVLAQDPAPATVDAKPELLDTRIPSA [R185Q]

Variants of: B4
Settings: with anchr_human ZFYVE19, Q96K21
anchr_human ZFYVE19, Q96K21, sequence (Q96K21 whole entry): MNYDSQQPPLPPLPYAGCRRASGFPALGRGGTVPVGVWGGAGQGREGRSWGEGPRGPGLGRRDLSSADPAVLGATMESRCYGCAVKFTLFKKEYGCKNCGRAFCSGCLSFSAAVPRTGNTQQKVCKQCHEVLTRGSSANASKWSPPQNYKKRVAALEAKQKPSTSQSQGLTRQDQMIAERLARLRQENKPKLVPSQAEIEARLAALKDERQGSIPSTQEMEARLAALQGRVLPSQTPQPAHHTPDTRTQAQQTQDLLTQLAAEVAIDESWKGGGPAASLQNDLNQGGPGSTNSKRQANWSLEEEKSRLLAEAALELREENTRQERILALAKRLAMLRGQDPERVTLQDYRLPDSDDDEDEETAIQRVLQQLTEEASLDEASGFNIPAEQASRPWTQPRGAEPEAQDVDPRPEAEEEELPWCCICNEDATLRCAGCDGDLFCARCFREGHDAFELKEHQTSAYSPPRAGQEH

effect of a mutation on the interaction | Variant
with no effect | MSSTSPNLQKAIDLASKAAQEDKAGNYEEALQLYQHAVQYFLHVVKYEAQGDKAKQSMRAKCTEYLDRAEKLKEYLKNKEKKAQKPVKEGQPSPADEKGNDSDGEGESDDPEKKKLQNQLQGAIVIERPNVKWSDVAGLEGAKEALKEAVILPIKFPHLFTGKRTPWRGILLFGPPGTGKSYLAKAVATEANNSTFFSISSSDLVSKWLGESEKLVKNLFQLARENKPSIIFIDEIDSLCGSRSENESEAARRIKTEFLVQMQGVGVDNDGILVLGATNIPWVLDSAIRRRFEKRIYIPLPEPHARAAMFKLHLGTTQNSLTEADFRELGRKTDGYSGADISIIVRDALMQPVRKVQSATHFKKVRGPSRADPNHLVDDLLTPCSPGDPGAIEMTWMDVPGDKLLEPVVSMSDMLRSLSNTKPTVNEHDLLKLKKFTEDFGQEG [I58M]
